Patent US20120276102A1 (Pfizer, published 2012)

Tests used:
[1] = target: T1, human IL-21R expressed on cells (human, UniProt Q9HBE5 20-538); experiment: cell-based or functional assay
[2] = target: T2, human IL-21R extracellular domain His-Flag fusion protein (human, UniProt Q9HBE5 20-232); experiment: SPR, Ab captured on anti-human IgG
T2 construct: Biotinylated in the HTRF screen; also called hIL-21R-H/F; human IL-21R-H/F
Protocol: (§1) The kinetics of binding of anti-IL-21R antibodies to human and murine IL-21R-H/F was tested on a BIACORE™ surface plasmon resonance instrument. Anti-human IgG antibodies (Invitrogen Corporation) were immobilized onto a research-grade carboxy-methyl-dextran chip (CM5) using standard amine coupling. The surface was activated with EDC/NHS for 7 min at a flow of 20 μl/min. The first flow cell was used as a reference surface to correct for bulk refractive index, matrix effects, and nonspecific binding. The anti-human-Fc antibody was diluted to 20 μg/ml in 10 mM sodium acetate buffer (pH 5.0), and 2950-3405 resonance units (RU) were captured on each of the four flow cells. Remaining activated groups were blocked with 1.0 M ethanolamine-HCl (pH 8.5).
(§2) Anti-IL-21R antibodies were diluted to 0.1-0.2 μg/ml in HBS/EP buffer supplemented with 0.2% bovine serum albumin and loaded onto the BIACORE™ chip. Following a brief washing period, solutions of 0-100 nM human IL-21R-H/F or 10-500 nM murine IL-21R-H/F were injected over the chip at a flow rate of 50 μl/min. The association phase was run for 3 min for human and murine IL-21R kinetics, and the dissociation phase was monitored for 15 min for hIL-21R and for 5 min for mIL-21R, followed by two 10 μl injections and one 30 μl injection of glycine (pH 1.5), to regenerate a fully active capturing surface. All binding experiments were done at 25° C. in HBS/EP buffer, and the sample rack was kept at 15° C. Blank and buffer effects were subtracted for each sensorgram using double referencing.

[3] = target: T3, murine IL-21R extracellular domain His-Flag fusion protein (murine, UniProt Q9JHX3 20-237); experiment: SPR, Ab captured on anti-human IgG
T3 construct: Biotinylated in the ELISAs; also called mIL-21R-H/F; murine IL-21R-H/F
Protocol: as §1, §2

[4] = target: T2, human IL-21R extracellular domain …; experiment: SPR, Ab captured on anti-human IgG, replicate experiment
Protocol: as §1, §2

[5] = target: T4, rat IL-21R expressed on cells (rat); experiment: cell-based ELISA on CHO cells transiently expressing rat IL-21R; HRP anti-human IgG, A450
T4 construct: whole, on cells
Protocol: FIG. 6(a-l) depicts the binding of 21 anti-IL-21R IgGs to CHO cells transiently expressing human IL-21R (FIGS. 6a-c), rat IL-21R (FIGS. 6d-f), cynomolgus monkey IL-21R (FIGS. 6g-i), and human gamma common chain (FIGS. 6j-1). CHO cells were transiently transfected with IL-21R or the control gamma common chain, and binding was detected with HRP-conjugated anti-human IgG in a cell-based ELISA.
A subset of binding proteins was tested for binding to rat, cynomolgus monkey, human IL-21R, or human IL-2R-γ common subunit expressed transiently on the surfaces of CHO-PA-Dukx cells. Cells were transfected 48 hr prior to the assay. On the day of the assay, cells were washed gently 5× in PBS containing 0.9 mM CaCl₂ and 0.45 mM MgCl₂ (PBS/CaMg) on an automated plate washer (Titertek, Huntsville, Ala.), and blocked for 1 hr at RT in PBS/CaMg/5% nonfat dry milk. Conditioned media from transiently expressed anti-IL-21R IgGs were serially diluted in blocking buffer and added to the cells in the blocked plates for 1 hr at RT. Cells were washed 5× with PBS/CaMg and then incubated with horseradish peroxidase-conjugated anti-human IgG for 1 hr at RT. Cells were then washed 10× in PBS/CaMg and all of the wash buffer was removed. Cells were incubated with 100 μl TMB until the color reaction reached saturation, stopped with 100 μl of 0.18 M H₂SO₄, and read at A450 on a Perkin Elmer ENVISION™ plate reader.

[6] = target: T1, human IL-21R expressed on cells; experiment: cell-based ELISA on CHO cells transiently expressing human IL-21R; HRP anti-human IgG, A450
[7] = target: T5, cynomolgus monkey IL-21R expressed on cells (cynomolgus monkey, UniProt G7Q0S8 41-559); experiment: cell-based ELISA on CHO cells transiently expressing cynomolgus monkey IL-21R; HRP anti-human IgG, A450
T5 construct: whole, on cells

[8] = target: T1, human IL-21R expressed on cells; experiment: cell-based or functional assay; remark: listed apart in the source
[9] = target: murine IL-21R expressed on cells (murine, UniProt Q9JHX3 20-529); experiment: cell-based or functional assay
[10] = target: T6, human complement component C1q (human, UniProt P02745 23-245; P02746 28-253; P02747 29-245); experiment: C1q ELISA: antibody coated on the plate, human serum 1:50, chicken anti-human C1q and HRP anti-chicken IgY
T6 construct: Native C1q in diluted human serum
T6 sequence (P02745 23-245, chain 1 of 3): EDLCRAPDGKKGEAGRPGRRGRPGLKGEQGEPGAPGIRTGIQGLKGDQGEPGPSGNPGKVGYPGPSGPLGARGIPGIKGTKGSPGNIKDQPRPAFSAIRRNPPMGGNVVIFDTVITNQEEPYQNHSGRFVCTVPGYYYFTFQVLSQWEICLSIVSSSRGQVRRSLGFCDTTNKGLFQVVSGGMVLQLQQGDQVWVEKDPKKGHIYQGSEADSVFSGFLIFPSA
T6 sequence (P02746 28-253, chain 2 of 3): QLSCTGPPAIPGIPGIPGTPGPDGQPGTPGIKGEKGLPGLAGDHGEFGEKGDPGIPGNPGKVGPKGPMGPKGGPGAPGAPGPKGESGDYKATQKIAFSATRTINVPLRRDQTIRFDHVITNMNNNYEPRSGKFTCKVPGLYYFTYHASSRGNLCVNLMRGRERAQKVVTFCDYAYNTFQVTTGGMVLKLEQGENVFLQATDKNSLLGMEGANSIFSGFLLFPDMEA
T6 sequence (P02747 29-245, chain 3 of 3): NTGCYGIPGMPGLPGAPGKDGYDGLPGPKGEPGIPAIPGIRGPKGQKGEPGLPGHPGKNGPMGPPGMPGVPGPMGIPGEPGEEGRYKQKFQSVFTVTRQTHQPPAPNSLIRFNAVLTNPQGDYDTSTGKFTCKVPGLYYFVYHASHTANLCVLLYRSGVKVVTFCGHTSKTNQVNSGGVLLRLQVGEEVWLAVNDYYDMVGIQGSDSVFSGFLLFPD
Protocol: In order to determine whether cell-surface binding by anti-IL-21R antibodies is likely to lead to complement-dependent cytotoxicity (CDC), the antibodies were tested for their ability to bind to the complement component C1q in an ELISA. […] Diluted antibodies (100 μl) were coated onto a COSTAR® high-binding ELISA plate (Corning Life Sciences, Lowell, Mass.) overnight at 4° C. Plates were washed 3× with PBS/Tween-20 and blocked with 200 μl of blocking buffer (0.1 M NaPO₄, 0.1 M NaCl, 0.1% gelatin, 0.01% Tween) for 1 hr at RT. Human serum previously determined to contain C1q (Quidel, San Diego, Calif.) was diluted 1:50 in PBS. After 1 hr of blocking, plates were washed and 100 μl of diluted serum was added to each well and incubated for 2 hr at RT on a shaker. Following three washes, 100 μl A of 0.1 μg/ml chicken polyclonal anti-human C1q antibody (AbCam, Cambridge, Mass.) was added to each well and incubated for 1 hr at RT. Plates were again washed and incubated with 100 μA of a rabbit polyclonal antibody to chicken Ig-Y—HRP diluted 1:4000 (AbCam) for 1 hr at RT. Plates were washed and developed with TMB for 5 min, followed by 50 μA of 1 M H₂SO₄ to stop the reaction, and then read at 450 nm.

T1 sequence (Q9HBE5 20-538 limits assumed): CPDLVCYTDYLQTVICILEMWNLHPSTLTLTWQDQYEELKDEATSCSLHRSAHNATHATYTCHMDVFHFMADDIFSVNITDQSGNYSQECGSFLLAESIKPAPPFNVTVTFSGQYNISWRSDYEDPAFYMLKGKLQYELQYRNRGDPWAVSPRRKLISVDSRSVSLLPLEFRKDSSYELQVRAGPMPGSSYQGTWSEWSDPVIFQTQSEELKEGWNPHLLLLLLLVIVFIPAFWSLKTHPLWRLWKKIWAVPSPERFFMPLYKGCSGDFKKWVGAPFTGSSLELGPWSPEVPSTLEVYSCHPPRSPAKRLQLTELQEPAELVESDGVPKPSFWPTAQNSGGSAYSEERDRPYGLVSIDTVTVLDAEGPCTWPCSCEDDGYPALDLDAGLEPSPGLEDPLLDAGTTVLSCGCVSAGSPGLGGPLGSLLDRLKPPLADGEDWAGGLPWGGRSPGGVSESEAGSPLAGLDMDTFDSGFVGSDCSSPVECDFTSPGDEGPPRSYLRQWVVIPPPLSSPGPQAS
T2 sequence (Q9HBE5 20-232): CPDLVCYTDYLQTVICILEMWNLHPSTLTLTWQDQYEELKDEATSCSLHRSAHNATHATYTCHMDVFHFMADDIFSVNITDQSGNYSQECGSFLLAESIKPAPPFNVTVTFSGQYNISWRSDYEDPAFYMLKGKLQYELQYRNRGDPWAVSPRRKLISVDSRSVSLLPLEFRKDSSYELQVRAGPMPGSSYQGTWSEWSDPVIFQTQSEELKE

Row | Binder | Neutralization of B cell proliferation IC50 [1] | Kd [2] | koff [2] | kon [2] | Kd [3] | koff [3] | kon [3] | Kd [4] | koff [4] | EC50 (read off the curve) [5] | EC50 (read off the curve) [6] | EC50 (read off the curve) [7] | Human IL-21R-BaF3 Neutralization IC50 [8] | Human IL-21R-TF1 Neutralization IC50 [8] | Murine IL-21R-BaF3 Neutralization IC50 [9] | kon [4] | binding result [10]
1 | AbQ (antibody, human IgG1, V domains shown, CDR3 graft, residue limits derived as for m29; also called VH3/VL2; VH3DM/VL2) VH: QVQLQESGPGLVKPSETLSLTCAVSGYSISSGYYWGWIRQPPGKGLEWIGSISHTGNTYYNPPLKSRVTISVDTSKNQFSLKLSSVTAADTAVYYCARFMGFGRPEYWGQGTLVTVSS VL: SSELTQDPAVSVALGQTVRITCQGDSLRTYYASWYQQKPGQAPVLVIYGKHKRPSGIPDRFSGSSSGNTASLTITGAQAEDEADYYCVARSVVGNPHVLFGGGTQLTVL | 0.16 nM | 0.213 nM | 9.34e-05 s⁻¹ | 439000 M⁻¹ s⁻¹ | 68.8 nM | 0.0207 s⁻¹ | 301000 M⁻¹ s⁻¹ | 0.213 nM | 9.34e-05 s⁻¹ | ~0.8 nM | ~0.9 nM | ~0.7 nM |  |  |  |  | 
2 | AbR (antibody, human IgG1, V domains shown, CDR3 graft, residue limits derived as for m29; also called VH3/VL18; VH3DM/VL18) VH: QVQLQESGPGLVKPSETLSLTCAVSGYSISSGYYWGWIRQPPGKGLEWIGSISHTGNTYYNPPLKSRVTISVDTSKNQFSLKLSSVTAADTAVYYCARFMGFGRPEYWGQGTLVTVSS VL: SSELTQDPAVSVALGQTVRITCQGDSLRTYYASWYQQKPGQAPVLVIYGKHKRPSGIPDRFSGSSSGNTASLTITGAQAEDEADYYCVTRSVKGNPHVLFGGGTQLTVL | 0.22 nM | 0.567 nM | 9.61e-05 s⁻¹ | 170000 M⁻¹ s⁻¹ | 64.5 nM | 0.00493 s⁻¹ | 76500 M⁻¹ s⁻¹ | 0.394 nM | 9.76e-05 s⁻¹ | ~0.7 nM | ~0.5 nM | ~1 nM | 0.56 nM | 1.63 nM | 0.34 nM | 248000 M⁻¹ s⁻¹ | 
3 | AbU (antibody, human IgG1, V domains shown, CDR3 graft, residue limits derived as for m29; also called VHP/VL25; VHPTM/VL25) VH: QVQLQESGPGLVKPSETLSLTCAVSGYSISSGYYWGWIRQPPGKGLEWIGSISHTGNTYYNPPLKSRVTISVDTSKNQFSLKLSSVTAADTAVYYCARGGGISRPEYWGQGTLVTVSS VL: SSELTQDPAVSVALGQTVRITCQGDSLRTYYASWYQQKPGQAPVLVIYGKHKRPSGIPDRFSGSSSGNTASLTITGAQAEDEADYYCTTRSNKGNPHVLFGGGTQLTVL | 0.13 nM | 0.44 nM | 8.18e-05 s⁻¹ | 186000 M⁻¹ s⁻¹ | 44.2 nM | 0.00434 s⁻¹ | 98100 M⁻¹ s⁻¹ | 0.329 nM | 7.83e-05 s⁻¹ |  | ~2 nM | ~0.7 nM |  |  |  | 238000 M⁻¹ s⁻¹ | no binding
4 | AbT (antibody, human IgG1, V domains shown, CDR3 graft, residue limits derived as for m29; also called VHP/VL9; VHPTM/VL9) VH: QVQLQESGPGLVKPSETLSLTCAVSGYSISSGYYWGWIRQPPGKGLEWIGSISHTGNTYYNPPLKSRVTISVDTSKNQFSLKLSSVTAADTAVYYCARGGGISRPEYWGQGTLVTVSS VL: SSELTQDPAVSVALGQTVRITCQGDSLRTYYASWYQQKPGQAPVLVIYGKHKRPSGIPDRFSGSSSGNTASLTITGAQAEDEADYYCVARSNKGNPHVLFGGGTQLTVL | 0.14 nM | 0.379 nM | 6.78e-05 s⁻¹ | 179000 M⁻¹ s⁻¹ | 15.7 nM | 0.00331 s⁻¹ | 211000 M⁻¹ s⁻¹ | 0.272 nM | 7.42e-05 s⁻¹ | ~1 nM | ~1 nM | ~0.6 nM | 0.3 nM | 2.32 nM | 0.05 nM | 273000 M⁻¹ s⁻¹ | 
